Consider one molecule from patent US20190117772, “METHODS FOR THE TREATMENT OF CARDIAC HYPERTROPHY” (UNIVERSITY OF CINCINNATI, published 2019).

In the series the target is HuR (Human antigen R, ELAVL1) (UniProt Q15717 Q15717:1-326). The series is described as follows: SPR; localized SPR (LSPR) on gold nanoparticle arrays; sizable red shift on HuR addition; inhibitor CMLD-1 disrupted binding (10 nm leftward shift). As to conditions: tags: Novus Biologicals H00001994-P01; tethered by base pairing to thiolated ssDNA on gold nanoparticles. The protocol:
Next a target RNA strand containing a DNA hybridizing region, which binds via base pair matching with the ssDNA on the nanoparticle, and a hairpin loop containing a HuR target binding site. The specific target RNA strand used (SEQ ID NO 7) contains a specific HuR binding motif, has the RNA sequence 5′-GCG-AAU-UGG-GCC-CGA-CGU-CGC-AUG-GCU-UUU-AUU-UAU-UUU-GCA-UGG-CCG-CGG-GAU-3′, and was from Integrated DNA Technologies (IDT). Last, the HuR protein is added and binds to its target site withing the RNA hairpin loop. The specific HuR protein used was a recombinant HuR protein from Novus Biologicals (product #:H00001994-P01). For each step of the assembly, sizable LSPR shifts were observed, confirming our ability to quantitatively measure the expected binding at each step (FIG. 11A-C).

Chain of HuR (Human antigen R, ELAVL1) (Q15717 whole entry, one chain of several): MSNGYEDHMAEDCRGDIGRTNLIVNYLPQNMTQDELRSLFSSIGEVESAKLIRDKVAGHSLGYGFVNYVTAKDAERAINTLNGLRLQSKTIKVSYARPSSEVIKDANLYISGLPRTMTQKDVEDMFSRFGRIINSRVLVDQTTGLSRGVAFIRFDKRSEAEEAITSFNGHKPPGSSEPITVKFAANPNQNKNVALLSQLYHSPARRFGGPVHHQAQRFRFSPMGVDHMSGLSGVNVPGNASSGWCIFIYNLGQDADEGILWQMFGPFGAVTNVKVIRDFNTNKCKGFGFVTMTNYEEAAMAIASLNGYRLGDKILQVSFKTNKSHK

B1: HuR target RNA with DNA-hybridizing region and hairpin loop (ssRNA)
RNA: GCGAAUUGGGCCCGACGUCGCAUGGCUUUUAUUUAUUUUGCAUGGCCGCGGGAU
Take B1: the binding result is given as “binds”.
